{"source": "patent EP4617282A1", "about": "(Institute Of Pathogen Biology, Chinese Academy Of Medical …, dated 2024)", "key": {"[1]": {"biological_target": "HIV-1JRFL Env (envelope glycoprotein of the HIV-1JRFL pseudovirus) (HIV-1 (strain JRFL))", "assay": "cell-based or functional assay"}, "[2]": {"biological_target": "HIV-1NL4-3 Env (envelope glycoprotein of the HIV-1NL4-3 pseudovirus) (HIV-1 (strain NL4-3))", "assay": "cell-based or functional assay"}}}
{"binder": "Ac-WEEWEKKIEELEKKIEELLKKAEEQQKKNEEELKKLEK-NH2 (not fully specified (residue 38))", "note": "[lipopeptide LP-104]", "values": [{"measurement": "IC50, inhibition of pseudovirus infection of TZM-bl cells (luciferase)", "setting": "[1]", "result": 60.2, "unit": "pM"}, {"measurement": "fold reduction of antiviral activity as compared to lipopeptide LP-101", "setting": "[1]", "result": "~27", "unit": "fold"}, {"measurement": "IC50, inhibition of pseudovirus infection of TZM-bl cells (luciferase)", "setting": "[2]", "result": 14.5, "unit": "pM"}, {"measurement": "fold reduction of antiviral activity as compared to lipopeptide LP-101", "setting": "[2]", "result": "~32", "unit": "fold"}]}
{"binder": "Ac-EIEELEKKIEELLKKAEEQQKKNEEELKKLEK-NH2 (not fully specified (residue 32))", "note": "[lipopeptide LP-101]", "values": [{"measurement": "average IC50, inhibition of pseudovirus infection of TZM-bl cells (luciferase)", "setting": "[1]", "result": 2.26, "unit": "pM"}, {"measurement": "average IC50, inhibition of pseudovirus infection of TZM-bl cells (luciferase)", "setting": "[2]", "result": 0.46, "unit": "pM"}]}
{"binder": "Ac-YEQKIEELLKKAEEQQKKNEEELKKLEK-NH2 (not fully specified (residue 28))", "note": "[lipopeptide LP-98]", "values": [{"measurement": "average IC50, inhibition of pseudovirus infection of TZM-bl cells (luciferase)", "setting": "[1]", "result": 2.58, "unit": "pM"}, {"measurement": "average IC50, inhibition of pseudovirus infection of TZM-bl cells (luciferase)", "setting": "[2]", "result": 1.07, "unit": "pM"}]}
